Experimental data taken from patent US20190002534A1 (UNIVERSITY OF MASSACHUSETTS, published 2019).

What was measured:
Assay in all cases: cell-based or functional assay
[1] = biological target: T1, G glycoprotein of rabies virus street isolate C1434 (rabies virus, isolate C1434 …)
[2] = biological target: T2, G glycoprotein of rabies virus street isolate NC SK (rabies virus, isolate NC SK (Skunk, …))
[3] = biological target: T3, G glycoprotein of rabies virus street isolate Bat EF (rabies virus, isolate Bat EF (Eptesicus …))
[4] = biological target: G glycoprotein of rabies virus street isolate CABat (rabies virus, isolate CABat (Myotis …))
[5] = biological target: G glycoprotein of rabies virus street isolate TN410 (rabies virus, isolate TN410 (Lasiurus …))
[6] = biological target: T4, G glycoprotein of rabies virus street isolate WA Bat (rabies virus, isolate WA Bat …)
[7] = biological target: G glycoprotein of rabies virus street isolate TN33 (rabies virus, isolate TN33 (Lasiurus …))
[8] = biological target: T5, G glycoprotein of rabies virus street isolate Myotis (rabies virus, isolate Myotis (Myotis …))
[9] = biological target: T6, G glycoprotein of rabies virus street isolate CO Bat EF6938 (rabies virus, isolate CO Bat EF6938 …)
[10] = biological target: G glycoprotein of rabies virus street isolate AZ Bat LC (rabies virus, isolate AZ Bat LC …)
[11] = biological target: T7, G glycoprotein of rabies virus street isolate TX SK 4380 (rabies virus, isolate TX SK 4380 …)
[12] = biological target: G glycoprotein of rabies virus street isolate TX Fox (rabies virus, isolate TX Fox (Fox …))
[13] = biological target: T8, G glycoprotein of rabies virus street isolate RAC (rabies virus, isolate RAC (Raccoon, …))
[14] = biological target: G glycoprotein of rabies virus street isolate VA1340 (rabies virus, isolate VA1340 (Lasiurus …))
[15] = biological target: G glycoprotein of rabies virus street isolate 1625 Bat (rabies virus, isolate 1625 Bat …)
[16] = biological target: T9, G glycoprotein of rabies virus street isolate AK fox (rabies virus, isolate AK fox (Fox, …))
[17] = biological target: T10, G glycoprotein of rabies virus street isolate Sonora Dog (rabies virus, isolate Sonora Dog (Dog, …))
[18] = biological target: G glycoprotein of rabies virus street isolate TN269 (rabies virus, isolate TN269 (Lasiurus …))
[19] = biological target: G glycoprotein of rabies virus street isolate TN132 (rabies virus, isolate TN132 (Lasiurus …))
[20] = biological target: G glycoprotein of rabies virus street isolate AZ fox 2400 (rabies virus, isolate AZ fox 2400 (Fox …))
[21] = biological target: G glycoprotein of rabies virus street isolate FLBat 769 (rabies virus, isolate FLBat 769 …)
[22] = biological target: T11, G glycoprotein of rabies virus street isolate PR Mong (rabies virus, isolate PR Mong …)
[23] = biological target: G glycoprotein of rabies virus street isolate CASK (rabies virus, isolate CASK (Skunk, U.S. …))
[24] = biological target: G glycoprotein of rabies virus isolate Texas coyote 323R (rabies virus, isolate Texas coyote 323R)
[25] = biological target: G glycoprotein of rabies virus street isolate VA399 (rabies virus, isolate VA399 (Lasiurus …))
[26] = biological target: G glycoprotein of rabies virus street isolate SW E fuscus (Test B) (rabies virus, isolate SW E fuscus …)
[27] = biological target: G glycoprotein of rabies virus street isolate Eptesicus fuscus (Nebraska) (Test B) (rabies virus, isolate Eptesicus fuscus …)
[28] = biological target: G glycoprotein of rabies virus street isolate Skunk south-central (Test B) (rabies virus, isolate Skunk …)
[29] = biological target: G glycoprotein of rabies virus street isolate Raccoon (Florida) (rabies virus, isolate Raccoon (Florida))
[30] = biological target: G glycoprotein of rabies virus street isolate Lasiurus cinereus (Arkansas) (Test B) (rabies virus, isolate Lasiurus cinereus …)
[31] = biological target: G glycoprotein of rabies virus street isolate Skunk (north-central) (Test B) (rabies virus, isolate Skunk …)
[32] = biological target: G glycoprotein of rabies virus street isolate Gray fox (Test B) (rabies virus, isolate Gray fox (Fox …))
[33] = biological target: G glycoprotein of rabies virus street isolate Tadarida (Test B) (rabies virus, isolate Tadarida sp. …)
[34] = biological target: G glycoprotein of rabies virus street isolate Eastern pipistrelle (Test B) (rabies virus, isolate Eastern …)
[35] = biological target: T1, G glycoprotein of rabies virus street …; remark: listed apart in the source
[36] = biological target: T2, G glycoprotein of rabies virus street …; remark: listed apart in the source
[37] = biological target: T3, G glycoprotein of rabies virus street …; remark: listed apart in the source
[38] = biological target: T4, G glycoprotein of rabies virus street …; remark: listed apart in the source
[39] = biological target: T5, G glycoprotein of rabies virus street …; remark: listed apart in the source
[40] = biological target: T6, G glycoprotein of rabies virus street …; remark: listed apart in the source
[41] = biological target: T7, G glycoprotein of rabies virus street …; remark: listed apart in the source
[42] = biological target: T8, G glycoprotein of rabies virus street …; remark: listed apart in the source
[43] = biological target: T9, G glycoprotein of rabies virus street …; remark: listed apart in the source
[44] = biological target: T10, G glycoprotein of rabies virus street …; remark: listed apart in the source
[45] = biological target: T11, G glycoprotein of rabies virus street …; remark: listed apart in the source

B1: anti-rabies virus human monoclonal antibody 2B10 (antibody, V domains shown)
VH: EVQLVQSGGGLVHPGGSLRLSCAGSGFTFSYFAMHWVRQAPGKGLEWVSTIGTGGGTYYADSVKGRFTISRDNAKNSLYLQMNSLRAEDMAVYYCARDNALRSFDWLFYSFDYWGQGTLVTVSS
VL: EIVLTQSPGTLSLSPGERATLSCRASQSISSSYLAWYQQKPGQAPRLLIYGASSRATGIPDRFSGSGSGTDFTLTISRLEPEDFAVYYCQRYGSSYTFGQGTKLEIK
- EC50 neutralization by RFFIT (Test A) [1]: 0.008 µg/mL
- EC50 neutralization by RFFIT (Test A) [2]: 0.004 µg/mL
- EC50 neutralization by RFFIT (Test A) [3]: 0.015 µg/mL
- EC50 neutralization by RFFIT (Test A) [4]: 0.004 µg/mL
- EC50 neutralization by RFFIT (Test A) [5]: 222 µg/mL
- EC50 neutralization by RFFIT (Test A) [6]: 0.009 µg/mL
- EC50 neutralization by RFFIT (Test A) [7]: 1620 µg/mL
- EC50 neutralization by RFFIT (Test A) [8]: 0.008 µg/mL
- EC50 neutralization by RFFIT (Test A) [9]: 0.01 µg/mL
- EC50 neutralization by RFFIT (Test A) [10]: 422 µg/mL
- EC50 neutralization by RFFIT (Test A) [11]: 0.005 µg/mL
- EC50 neutralization by RFFIT (Test A) [12]: 0.02 µg/mL
- EC50 neutralization by RFFIT (Test A) [13]: 0.03 µg/mL
- EC50 neutralization by RFFIT (Test A) [14]: > 2400 µg/mL
- EC50 neutralization by RFFIT (Test A) [15]: 83 µg/mL
- EC50 neutralization by RFFIT (Test A) [16]: 0.004 µg/mL
- EC50 neutralization by RFFIT (Test A) [17]: 0.006 µg/mL
- EC50 neutralization by RFFIT (Test A) [18]: > 2400 µg/mL
- EC50 neutralization by RFFIT (Test A) [19]: > 2400 µg/mL
- EC50 neutralization by RFFIT (Test A) [20]: 0.043 µg/mL
- EC50 neutralization by RFFIT (Test A) [21]: > 2400 µg/mL
- EC50 neutralization by RFFIT (Test A) [22]: 0.006 µg/mL
- EC50 neutralization by RFFIT (Test A) [23]: 0.48 µg/mL
- EC50 neutralization by RFFIT (Test A) [24]: 1.57 µg/mL
- EC50 neutralization by RFFIT (Test A) [25]: 864 µg/mL
- EC50 neutralization by RFFIT (Test B) [26]: 0.005 µg/mL
- EC50 neutralization by RFFIT (Test B) [27]: 0.014 µg/mL
- EC50 neutralization by RFFIT (Test B) [28]: 0.002 µg/mL
- EC50 neutralization by RFFIT (Test B) [29]: 0.005 µg/mL
- EC50 neutralization by RFFIT (Test B) [30]: 117 µg/mL
- EC50 neutralization by RFFIT (Test B) [31]: 0.005 µg/mL
- EC50 neutralization by RFFIT (Test B) [32]: < 0.0002 µg/mL
- EC50 neutralization by RFFIT (Test B) [33]: 0.011 µg/mL
- EC50 neutralization by RFFIT (Test B) [34]: 0.033 µg/mL
- EC50 neutralization by RFFIT [35]: 0.008 µg/mL
- EC50 neutralization by RFFIT [36]: 0.004 µg/mL
- EC50 neutralization by RFFIT [37]: 0.015 µg/mL
- EC50 neutralization by RFFIT [38]: 0.009 µg/mL
- EC50 neutralization by RFFIT [39]: 0.008 µg/mL
- EC50 neutralization by RFFIT [40]: 0.01 µg/mL
- EC50 neutralization by RFFIT [41]: 0.005 µg/mL
- EC50 neutralization by RFFIT [42]: 0.03 µg/mL
- EC50 neutralization by RFFIT [43]: 0.004 µg/mL
- EC50 neutralization by RFFIT [44]: 0.006 µg/mL
- EC50 neutralization by RFFIT [45]: 0.006 µg/mL

B2: anti-rabies virus human monoclonal antibody 17C7 (antibody, V domains shown)
VH: QVQLVESGGGVVQPGRSLRLSCAASGFTFSTYAMHWVRQAPGKGLEWVAVVSYDGRTKDYADSVKGRFTISRDNSKNTLYLQMNSLRTEDTAVYFCARERFSGAYFDYWGQGTLVTVSS
VL: EIVLTQSPATLSLSPGERATLSCRASQSVSSYLAWYQQKPGQAPRLLIYDASNRATGIPARFSGSGSGTDFTLTISSLEPEDFAVYSCQQRNNWPPTFGGGTKVEIK
- EC50 neutralization by RFFIT (Test A) [1]: 0.154 µg/mL
- EC50 neutralization by RFFIT (Test A) [2]: 0.8 µg/mL
- EC50 neutralization by RFFIT (Test A) [3]: 0.512 µg/mL
- EC50 neutralization by RFFIT (Test A) [4]: 0.006 µg/mL
- EC50 neutralization by RFFIT (Test A) [5]: 8 µg/mL
- EC50 neutralization by RFFIT (Test A) [6]: 0.87 µg/mL
- EC50 neutralization by RFFIT (Test A) [7]: 9.11 µg/mL
- EC50 neutralization by RFFIT (Test A) [8]: 0.004 µg/mL
- EC50 neutralization by RFFIT (Test A) [9]: 0.182 µg/mL
- EC50 neutralization by RFFIT (Test A) [10]: 10 µg/mL
- EC50 neutralization by RFFIT (Test A) [11]: 0.006 µg/mL
- EC50 neutralization by RFFIT (Test A) [12]: 0.023 µg/mL
- EC50 neutralization by RFFIT (Test A) [13]: 0.027 µg/mL
- EC50 neutralization by RFFIT (Test A) [14]: 199 µg/mL
- EC50 neutralization by RFFIT (Test A) [15]: 80 µg/mL
- EC50 neutralization by RFFIT (Test A) [16]: 0.005 µg/mL
- EC50 neutralization by RFFIT (Test A) [17]: 0.006 µg/mL
- EC50 neutralization by RFFIT (Test A) [18]: 400 µg/mL
- EC50 neutralization by RFFIT (Test A) [19]: 414 µg/mL
- EC50 neutralization by RFFIT (Test A) [20]: 0.211 µg/mL
- EC50 neutralization by RFFIT (Test A) [21]: 80.2 µg/mL
- EC50 neutralization by RFFIT (Test A) [22]: 0.007 µg/mL
- EC50 neutralization by RFFIT (Test A) [23]: 0.006 µg/mL
- EC50 neutralization by RFFIT (Test A) [24]: 0.01 µg/mL
- EC50 neutralization by RFFIT (Test A) [25]: 21.9 µg/mL
- EC50 neutralization by RFFIT (Test B) [26]: 675 µg/mL
- EC50 neutralization by RFFIT (Test B) [27]: 0.002 µg/mL
- EC50 neutralization by RFFIT (Test B) [28]: 0.0004 µg/mL
- EC50 neutralization by RFFIT (Test B) [29]: 1000 µg/mL
- EC50 neutralization by RFFIT (Test B) [30]: 10.4 µg/mL
- EC50 neutralization by RFFIT (Test B) [31]: 7.36 µg/mL
- EC50 neutralization by RFFIT (Test B) [32]: 0.002 µg/mL
- EC50 neutralization by RFFIT (Test B) [33]: 1.05 µg/mL
- EC50 neutralization by RFFIT (Test B) [34]: 143 µg/mL
- EC50 neutralization by RFFIT [35]: 0.154 µg/mL
- EC50 neutralization by RFFIT [36]: 0.8 µg/mL
- EC50 neutralization by RFFIT [37]: 0.512 µg/mL
- EC50 neutralization by RFFIT [38]: 0.87 µg/mL
- EC50 neutralization by RFFIT [39]: 0.004 µg/mL
- EC50 neutralization by RFFIT [40]: 0.182 µg/mL
- EC50 neutralization by RFFIT [41]: 0.006 µg/mL
- EC50 neutralization by RFFIT [42]: 0.027 µg/mL
- EC50 neutralization by RFFIT [43]: 0.005 µg/mL
- EC50 neutralization by RFFIT [44]: 0.006 µg/mL
- EC50 neutralization by RFFIT [45]: 0.007 µg/mL
